Patent US20240124607A1 (Merck Sharp & Dohme, published 2024)

T1: hCEACAM5 A2-B2 domain (human, UniProt P06731 323-500, limits assumed)
T1 sequence: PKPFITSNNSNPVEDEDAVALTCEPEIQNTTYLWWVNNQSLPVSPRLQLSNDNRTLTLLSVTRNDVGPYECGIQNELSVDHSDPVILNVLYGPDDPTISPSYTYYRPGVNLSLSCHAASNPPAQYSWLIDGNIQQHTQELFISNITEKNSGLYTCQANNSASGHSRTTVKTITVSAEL

T2: CEACAM5 Nterm IgV-His (human, UniProt P06731 35-144)
T2 construct: also called N-term domain of hCEACAM5
T2 sequence: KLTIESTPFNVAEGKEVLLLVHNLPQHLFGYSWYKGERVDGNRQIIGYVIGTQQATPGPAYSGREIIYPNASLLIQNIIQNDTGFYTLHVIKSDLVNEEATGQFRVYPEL

T3: CEACAM5 N-A1-B1-His (human, UniProt P06731 35-322, limits assumed)
T3 sequence: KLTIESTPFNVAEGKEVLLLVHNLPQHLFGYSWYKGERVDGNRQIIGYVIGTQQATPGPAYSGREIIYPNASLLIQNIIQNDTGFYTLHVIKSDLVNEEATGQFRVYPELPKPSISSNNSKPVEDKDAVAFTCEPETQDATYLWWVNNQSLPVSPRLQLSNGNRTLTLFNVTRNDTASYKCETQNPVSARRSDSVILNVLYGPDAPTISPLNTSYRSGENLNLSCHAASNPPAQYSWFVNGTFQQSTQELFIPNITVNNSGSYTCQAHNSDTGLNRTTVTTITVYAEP

T4: human CEACAM5 on cells (human, UniProt P06731 35-685)
T4 sequence: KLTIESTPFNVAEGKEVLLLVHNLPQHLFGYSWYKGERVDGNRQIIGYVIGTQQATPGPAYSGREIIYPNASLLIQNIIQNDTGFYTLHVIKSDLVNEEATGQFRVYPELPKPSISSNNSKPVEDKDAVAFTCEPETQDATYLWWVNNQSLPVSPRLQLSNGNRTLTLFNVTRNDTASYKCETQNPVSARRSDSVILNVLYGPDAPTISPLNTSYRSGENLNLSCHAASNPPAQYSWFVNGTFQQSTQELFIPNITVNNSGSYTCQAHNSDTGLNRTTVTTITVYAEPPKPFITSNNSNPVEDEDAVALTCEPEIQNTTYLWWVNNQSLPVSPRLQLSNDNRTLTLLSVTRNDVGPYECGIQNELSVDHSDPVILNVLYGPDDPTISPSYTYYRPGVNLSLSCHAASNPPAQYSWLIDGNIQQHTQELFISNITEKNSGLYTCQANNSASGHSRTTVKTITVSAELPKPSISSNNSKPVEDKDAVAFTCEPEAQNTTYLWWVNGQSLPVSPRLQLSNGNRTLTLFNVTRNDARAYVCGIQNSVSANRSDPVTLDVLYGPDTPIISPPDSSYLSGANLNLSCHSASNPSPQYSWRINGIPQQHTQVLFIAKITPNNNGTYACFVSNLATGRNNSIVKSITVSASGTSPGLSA


How the values were obtained:
hCEACAM5 A2-B2 domain = biological target: T1, hCEACAM5 A2-B2 domain; assay: SPR with hCEACAM5 domains
Description: If the protein domain was an Fc fusion, AB0411, AB0466, AB0264, or AB0621 were captured using an anti-human Fab antibody (Cytiva, #28958325) immobilized onto a CM5 chip. The various hCEACAM5 protein domains (N-term, A1-B1, A2, B2, A3, or B3) were titrated over the captured TriNKETs at 50 μL/min for 180 sec of association and 300 sec of dissociation. The assay was run at 25° C. in HBS-EP+ running buffer, pH 7.4. The surface of the CM5 chip was regenerated using […] glycine pH 2.1.
(§1) The various hCEACAM5 protein domains were titrated over the captured antibody at 50 μL/min for 180 sec of association and 300 sec of dissociation. The assay was run at 37° C. in HBS-EP+ running buffer, pH 7.4. The surface of the CM5 chip was regenerated using 3M MgCl₂.

CEACAM5 Nterm IgV-His = biological target: T2, CEACAM5 Nterm IgV-His; assay: SPR, hFc capt, 37C
Description: as §1

CEACAM5 N-A1-B1-His = biological target: T3, CEACAM5 N-A1-B1-His; assay: SPR, hFc capt, 37C
Description: as §1

human CEACAM5 on cells [1] = biological target: T4, human CEACAM5 on cells; assay: cell-based or functional assay
human CEACAM5 on cells [2] = biological target: T4, human CEACAM5 on cells; assay: flow cytometry, HPAF-II cells
Description: MKN-45 and HPAF-II human cancer cell lines were diluted into FACS buffer and 100,000 cells of each cell type were seeded per well in duplicate into 96-well plates for FACS staining. The cells were washed with PBS, incubated in a 1:2000 dilution of live/dead dye in PBS for 15 minutes, and then washed with FACS buffer. AB0264, AB0411, AB0466, and AB0621 were diluted into FACS buffer, and 50 μl of each diluted TriNKET was added to the cells. After incubation on ice for 30-120 minutes, the cells were washed with FACS buffer. Anti-human IgG-Fc secondary antibody was diluted into FACS buffer, and 50 μl was added per well for detection of the bound TriNKETs. The cells were incubated for 30-60 minutes on ice and then washed with FACS buffer. 50 μl of fixation buffer was added to each well and the cells were incubated for 10 minutes at room temperature. The cells were washed with FACS buffer and resuspended in FACS buffer for analysis with ThermoFisher Attune NxT, BD FACS Celesta SN #H66034400085, or BD FACS Celesta SN #H66034400160.
Cells of interest were identified using FSC vs. SSC plot and an appropriately shaped gate was drawn around the cells. Within the gated cells, doublet cells were removed by viewing FSC-H vs. FSC-A plot. Within the single cell population, live cells were gated. Within the live gate, the median fluorescence intensity (MFI) of each sample and the secondary-only control was calculated. Fold-over-background (FOB) was calculated as the ratio of test article MFI over secondary-only background MFI. Data were fit to a four-parameter non-linear regression curve using GraphPad Prism 7.0.

Row | Binder | binding result (hCEACAM5 A2-B2 domain) | Kd (CEACAM5 Nterm IgV-His) [nM] | kon (CEACAM5 Nterm IgV-His) [M⁻¹ s⁻¹] | Kd (CEACAM5 N-A1-B1-His) [nM] | kon (CEACAM5 N-A1-B1-His) [M⁻¹ s⁻¹] | EC50 (nM), NK lysis of HPAF-II (DELFIA) (human CEACAM5 on cells [1]) [nM] | EC50 (nM), NK lysis of LS-174T (DELFIA) (human CEACAM5 on cells [1]) [nM] | EC50 (nM), NK lysis of SK-CO-1 (DELFIA) (human CEACAM5 on cells [1]) [nM] | EC50 (nM), NK lysis of ZR-75-30 (DELFIA) (human CEACAM5 on cells [1]) [nM] | Max Killing (%), HPAF-II (human CEACAM5 on cells [1]) [%] | Max Killing (%), LS-174T (human CEACAM5 on cells [1]) [%] | Max Killing (%), SK-CO-1 (human CEACAM5 on cells [1]) [%] | Max Killing (%), ZR-75-30 (human CEACAM5 on cells [1]) [%] | EC50 (human CEACAM5 on cells [2]) [nM] | Max FOB (human CEACAM5 on cells [2]) [fold over background]
1 | AB0466 F3' CEACAM5 TriNKET (bispecific antibody, human IgG1, kappa) not shown heavy: EVQLVESGGGLVKPGGSLRLSCAASGFTFSSYSMNWVRQAPGKGLEWVSSISSSSSYIYYADSVKGRFTISRDNAKNSLYLQMNSLRAEDTAVYYCARGAPIGAAAGWFDPWGQGTLVTVSSASTKGPSVFPLAPSSKSTSGGTAALGCLVKDYFPEPVTVSWNSGALTSGVHTFPAVLQSSGLYSLSSVVTVPSSSLGTQTYICNVNHKPSNTKVDKKVEPKSCDKTHTCPPCPAPELLGGPSVFLFPPKPKDTLMISRTPEVTCVVVDVSHEDPEVKFNWYVDGVEVHNAKTKPREEQYNSTYRVVSVLTVLHQDWLNGKEYKCKVSNKALPAPIEKTISKAKGQPREPQVCTLPPSRDELTENQVSLTCLVKGFYPSDIAVEWESNGQPENNYKTTPPVLDSDGSFFLYSWLTVDKSRWQQGNVFSCSVMHEALHNHYTQKSLSLSPG light: DIQMTQSPSSVSASVGDRVTITCRASQGISSWLAWYQQKPGKAPKLLIYAASSLQSGVPSRFSGSGSGTDFTLTISSLQPEDFATYYCQQGVSFPRTFGGGTKVEIKRTVAAPSVFIFPPSDEQLKSGTASVVCLLNNFYPREAKVQWKVDNALQSGNSQESVTEQDSKDSTYSLSSTLTLSKADYEKHKVYACEVTHQGLSSPVTKSFNRGEC | no binding | 1.4 | 1.1e+06 | 5.5 | 240000 | 0.23 | 0.46 | 9.07 | 0.8 | 16.5 | 20.5 | 75.1 | 21.4 | 7.61 | 49
2 | AB0264 F3' CEACAM5 TriNKET (bispecific antibody, human IgG1, kappa) DIVMTQSPDSLAVSLGERATINCKSSHSLLYGNFQNNYLAWYQQKPGQPPKLLIYWASTRESGVPDRFSGSGSGTDFTLTISSLQAEDVAVYYCQQYYSYPYTFGCGTKLEIKGGGGSGGGGSGGGGSGGGGSQVQLVQSGAEVKKPGASVKVSCKASGYTFTAYTIHWVRQAPGQCLEWMGYINPSSGYTEYNQKFKDRTTLTADTSIPTAYMELSRLRSDDTAVYYCTREGGLLWFDYWGQGTLVTVSSGSDKTHTCPPCPAPELLGGPSVFLFPPKPKDTLMISRTPEVTCVVVDVSHEDPEVKFNWYVDGVEVHNAKTKPREEQYNSTYRVVSVLTVLHQDWLNGKEYKCKVSNKALPAPIEKTISKAKGQPREPRVYTLPPCRDELTKNQVSLTCLVKGFYPSDIAVEWESNGQPENNYKTTPPVLVSDGSFTLYSKLTVDKSRWQQGNVFSCSVMHEALHNHYTQKSLSLSPG heavy: EVQLVESGGGLVKPGGSLRLSCAASGFTFSSYSMNWVRQAPGKGLEWVSSISSSSSYIYYADSVKGRFTISRDNAKNSLYLQMNSLRAEDTAVYYCARGAPIGAAAGWFDPWGQGTLVTVSSASTKGPSVFPLAPSSKSTSGGTAALGCLVKDYFPEPVTVSWNSGALTSGVHTFPAVLQSSGLYSLSSVVTVPSSSLGTQTYICNVNHKPSNTKVDKKVEPKSCDKTHTCPPCPAPELLGGPSVFLFPPKPKDTLMISRTPEVTCVVVDVSHEDPEVKFNWYVDGVEVHNAKTKPREEQYNSTYRVVSVLTVLHQDWLNGKEYKCKVSNKALPAPIEKTISKAKGQPREPQVCTLPPSRDELTENQVSLTCLVKGFYPSDIAVEWESNGQPENNYKTTPPVLDSDGSFFLYSWLTVDKSRWQQGNVFSCSVMHEALHNHYTQKSLSLSPG light: DIQMTQSPSSVSASVGDRVTITCRASQGISSWLAWYQQKPGKAPKLLIYAASSLQSGVPSRFSGSGSGTDFTLTISSLQPEDFATYYCQQGVSFPRTFGGGTKVEIKRTVAAPSVFIFPPSDEQLKSGTASVVCLLNNFYPREAKVQWKVDNALQSGNSQESVTEQDSKDSTYSLSSTLTLSKADYEKHKVYACEVTHQGLSSPVTKSFNRGEC | no binding |  |  |  |  |  |  |  |  |  |  |  |  | 20.3 | 27.9
